What was measured:
NR-LU-10 antigen = biological target: T1, NR-LU-10 antigen (Homo sapiens, UniProt P16422); assay: NR-LU-10 tumor tissue reactivity (Table A); type: binding
T1 construct: Positive NR-LU-10 tissue reactivity indicates NR-LU-10 antigen expression by such tissues; from tissue; host or cells: carcinoma and normal tissue specimens
T1 sequence (P16422 24-314): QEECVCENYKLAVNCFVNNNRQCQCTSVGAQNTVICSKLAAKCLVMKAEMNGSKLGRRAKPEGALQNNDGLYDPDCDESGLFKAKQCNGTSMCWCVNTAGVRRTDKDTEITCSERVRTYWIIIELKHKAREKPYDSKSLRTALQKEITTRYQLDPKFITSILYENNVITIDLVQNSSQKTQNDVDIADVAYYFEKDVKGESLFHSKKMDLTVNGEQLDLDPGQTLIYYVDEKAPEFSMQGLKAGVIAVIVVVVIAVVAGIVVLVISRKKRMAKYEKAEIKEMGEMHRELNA
Description: Radioimmunoassays, immunoprecipitation and Fluorescence-Activated Cell Sorter (FACS) analysis were used to obtain reactivity profiles of NR-LU-10. The NR-LU-10 target antigen was present on either fixed cultured cells or in detergent extracts of various types of cancer cells. For example, the NR-LU-10 antigen is found in small cell lung, non-small cell lung, colon, breast, renal, ovarian, pancreatic, and other carcinoma tissues. Tumor reactivity of the NR-LU-10 antibody is set forth in Table A, while NR-LU-10 reactivity with normal tissues is set forth in Table B. The values in Table B are obtained as described below. Positive NR-LU-10 tissue reactivity indicates NR-LU-10 antigen expression by such tissues.

[1] = Human clinical trials of NR-LU-10; type: in vivo; conditions: over 565 patients
Protocol: The hybridoma secreting NR-LU-10 was developed by fusing mouse splenocytes immunized with intact cells of a human small cell lung carcinoma with P3×63/Ag8UI murine myeloma cells. After establishing a seed lot, the hybridoma was grown via in vitro cell culture methods, purified and verified for purity and sterility.

B1: NR-LU-10: 150 kilodalton IgG2b monoclonal antibody recognizing an approximately 40 kilodalton glycoprotein antigen expressed on most carcinomas (antibody, V domains shown)
VH: EVQLQQSGAELVKPGASVRLSCTASGFNIKDTYMHWVIERPEQGLEWIGRIDPANGNTKCDPKFQGKATITADTSSNTAYLQLSSLTSEDTAVYYCSREVLTGTWSLDYWGQGTSVTVSS
VL: DIQMIQSPSSMFASLGDRVSLSCRASQGIRGNLDWYQQKPGGTIKLLIYSTSNLNSGVPSRFSGSGSGSDYSLTISSLDSEDFADYYCLQRNAYPYTFGGGTKLEIK
**Q.** Which results are given for B1?
**A.** # Pos/Exam (NR-LU-10 antigen; Breast Adenocarcinoma): 23/23; Intensity Avg. (rated 0-3) (NR-LU-10 antigen; Breast Adenocarcinoma): 2.9; Percent Avg. (cells stained) (NR-LU-10 antigen; Breast Adenocarcinoma): 97%; Uniformity Avg. (rated 0-3) (NR-LU-10 antigen; Breast Adenocarcinoma): 2.8; # Pos/Exam (NR-LU-10 antigen; Colon Carcinoma): 12/12; Intensity Avg. (rated 0-3) (NR-LU-10 antigen; Colon Carcinoma): 2.9; Percent Avg. (cells stained) (NR-LU-10 antigen; Colon Carcinoma): 98%; Uniformity Avg. (rated 0-3) (NR-LU-10 antigen; Colon Carcinoma): 2.9; # Pos/Exam (NR-LU-10 antigen; Liposarcoma): 0/2; Intensity Avg. (rated 0-3) (NR-LU-10 antigen; Liposarcoma): 0; Percent Avg. (cells stained) (NR-LU-10 antigen; Liposarcoma): 0%; Uniformity Avg. (rated 0-3) (NR-LU-10 antigen; Liposarcoma): 0; # Pos/Exam (NR-LU-10 antigen; Lung Adenocarcinoma): 8/8; Intensity Avg. (rated 0-3) (NR-LU-10 antigen; Lung Adenocarcinoma): 3; Percent Avg. (cells stained) (NR-LU-10 antigen; Lung Adenocarcinoma): 100%; Uniformity Avg. (rated 0-3) (NR-LU-10 antigen; Lung Adenocarcinoma): 2.2; # Pos/Exam (NR-LU-10 antigen; Lung Small Cell Carcinoma): 2/2; Intensity Avg. (rated 0-3) (NR-LU-10 antigen; Lung Small Cell Carcinoma): 3; Percent Avg. (cells stained) (NR-LU-10 antigen; Lung Small Cell Carcinoma): 100%; Uniformity Avg. (rated 0-3) (NR-LU-10 antigen; Lung Small Cell Carcinoma): 2; # Pos/Exam (NR-LU-10 antigen; Lung Squamous Cell Carcinoma): 8/8; Intensity Avg. (rated 0-3) (NR-LU-10 antigen; Lung Squamous Cell Carcinoma): 2.3; Percent Avg. (cells stained) (NR-LU-10 antigen; Lung Squamous Cell Carcinoma): 73%; Uniformity Avg. (rated 0-3) (NR-LU-10 antigen; Lung Squamous Cell Carcinoma): 1.8; # Pos/Exam (NR-LU-10 antigen; Lymphoma): 0/2; Intensity Avg. (rated 0-3) (NR-LU-10 antigen; Lymphoma): 0; Percent Avg. (cells stained) (NR-LU-10 antigen; Lymphoma): 0%; Uniformity Avg. (rated 0-3) (NR-LU-10 antigen; Lymphoma): 0; # Pos/Exam (NR-LU-10 antigen; Malignant Melanoma): 0/11; Intensity Avg. (rated 0-3) (NR-LU-10 antigen; Malignant Melanoma): 0; Percent Avg. (cells stained) (NR-LU-10 antigen; Malignant Melanoma): 0%; Uniformity Avg. (rated 0-3) (NR-LU-10 antigen; Malignant Melanoma): 0; # Pos/Exam (NR-LU-10 antigen; Malignant Melanoma Ocular): 0/2; Intensity Avg. (rated 0-3) (NR-LU-10 antigen; Malignant Melanoma Ocular): 0; Percent Avg. (cells stained) (NR-LU-10 antigen; Malignant Melanoma Ocular): 0%; Uniformity Avg. (rated 0-3) (NR-LU-10 antigen; Malignant Melanoma Ocular): 0; # Pos/Exam (NR-LU-10 antigen; Osteosarcoma): 1/1; Intensity Avg. (rated 0-3) (NR-LU-10 antigen; Osteosarcoma): 2; Percent Avg. (cells stained) (NR-LU-10 antigen; Osteosarcoma): 20%; Uniformity Avg. (rated 0-3) (NR-LU-10 antigen; Osteosarcoma): 1; # Pos/Exam (NR-LU-10 antigen; Ovarian Carcinoma): 35/35; Intensity Avg. (rated 0-3) (NR-LU-10 antigen; Ovarian Carcinoma): 2.9; Percent Avg. (cells stained) (NR-LU-10 antigen; Ovarian Carcinoma): 100%; Uniformity Avg. (rated 0-3) (NR-LU-10 antigen; Ovarian Carcinoma): 2.2; # Pos/Exam (NR-LU-10 antigen; Pancreas Carcinoma): 6/6; Intensity Avg. (rated 0-3) (NR-LU-10 antigen; Pancreas Carcinoma): 3; Percent Avg. (cells stained) (NR-LU-10 antigen; Pancreas Carcinoma): 100%; Uniformity Avg. (rated 0-3) (NR-LU-10 antigen; Pancreas Carcinoma): 2.3; # Pos/Exam (NR-LU-10 antigen; Prostate Carcinoma): 9/9; Intensity Avg. (rated 0-3) (NR-LU-10 antigen; Prostate Carcinoma): 2.8; Percent Avg. (cells stained) (NR-LU-10 antigen; Prostate Carcinoma): 95%; Uniformity Avg. (rated 0-3) (NR-LU-10 antigen; Prostate Carcinoma): 2; # Pos/Exam (NR-LU-10 antigen; Renal Carcinoma): 8/9; Intensity Avg. (rated 0-3) (NR-LU-10 antigen; Renal Carcinoma): 2.2; Percent Avg. (cells stained) (NR-LU-10 antigen; Renal Carcinoma): 83%; Uniformity Avg. (rated 0-3) (NR-LU-10 antigen; Renal Carcinoma): 1; # Pos/Exam (NR-LU-10 antigen; Synovial Sarcoma): 0/1; Intensity Avg. (rated 0-3) (NR-LU-10 antigen; Synovial Sarcoma): 0; Percent Avg. (cells stained) (NR-LU-10 antigen; Synovial Sarcoma): 0%; Uniformity Avg. (rated 0-3) (NR-LU-10 antigen; Synovial Sarcoma): 0; # Pos/Exam (NR-LU-10 antigen; Undifferentiated Carcinoma): 1/1; Intensity Avg. (rated 0-3) (NR-LU-10 antigen; Undifferentiated Carcinoma): 2; Percent Avg. (cells stained) (NR-LU-10 antigen; Undifferentiated Carcinoma): 90%; Uniformity Avg. (rated 0-3) (NR-LU-10 antigen; Undifferentiated Carcinoma): 2; # Pos/Exam (NR-LU-10 antigen; Uterine Leiomyosarcoma): 0/1; Intensity Avg. (rated 0-3) (NR-LU-10 antigen; Uterine Leiomyosarcoma): 0; Percent Avg. (cells stained) (NR-LU-10 antigen; Uterine Leiomyosarcoma): 0%; Uniformity Avg. (rated 0-3) (NR-LU-10 antigen; Uterine Leiomyosarcoma): 0; safety in human clinical trials [1]: safely administered

Reference: patent US6416738B1, “Pretargeting methods and compounds” (NeoRx Corporation, priority 1973, dated 2002)
